# “Also recorded” adds a separate entry of the source.
# B1: EMAP II: 6x-His tagged recombinant EMAP II, cleaved C-terminal peptide of AIMP1 (SEQ ID NO: 2), pro-inflammatory cytokine (protein)
# chain: IAGSADSKPIDVSRLDLRIGCIITARKHPDADSLYVEEVDVGEIAPRTVVSGLVNHVPLEQMQNRMVILLCNLKPAKMRGVLSQAMVMCASSPEKIEILAPPNGSVPGDRITFDAFPGEPDKELNPKKKIWEQIQPDLHTNDECVATYKGVPFEVKGKGVCRAQTMSNSGIK
# What was measured:
# SphK1 [1] = assay: SphK1 protein western blot in hPASMC; assay type: cell-based, human; conditions: SMCs; EMAP II 6 hours
# Protocol: (§1) RAW 264.7 (ATCC) mouse macrophages and Human Embryonic Kidney (HEK) 293T cells were cultured in DMEM media with 10% fetal bovine serum […] and glutamine HEPES buffer and beta-mercaptoethanol were added to the growth medium used for RAW 264.7 macrophages. […]
# (§2) After appropriate treatments, protein lysates were prepared by using RIPA buffer supplemented with phosphatase and protease inhibitors (Thermo Fischer Scientific). […] Western blots were performed according to standard methods and quantified using densitometry using Image Studio Lite software from LI-COR Biosciences. […]
# After appropriate treatments, protein lysates were prepared by using RIPA buffer supplemented with phosphatase and protease inhibitors (Thermo Fisher Scientific). […] Western blots were performed according to standard methods and quantified using densitometry using Image Studio Lite software from LI-COR Biosciences. […]
# SphK1 [2] = assay: SphK1 transcripts qRT-PCR in hPASMC; assay type: cell-based, human; conditions: SMCs
# Protocol: as §1
# (§3) Total RNA was extracted with TriZol using standard RNA extraction protocol and reverse transcribed with SuperScript III Reverse Transcriptase (Thermo Fischer Scientific). SphK1, Tnf, Il6, EGR1, Gapdh, Hprt1 transcripts were quantified using PrimePCR SYBR Green assays from BioRad. […]
# (§4) Total RNA was extracted with TriZol using standard RNA extraction protocol and reverse transcribed with SuperScript III Reverse Transcriptase (Thermo Fisher Scientific). SPHK1, Tnf, Il6, EGR1, Gapdh, Hprt1 transcripts were quantified using PrimePCR SYBR Green assays from BioRad.
# SphK1 [3] = assay: SphK1 protein western blot in RAW 264.7 macrophages; assay type: cell-based, mouse
# Protocol: as §1, §2
# After appropriate treatments, protein lysates were prepared by using RIPA buffer supplemented with phosphatase and protease inhibitors (Thermo Fisher Scientific). […] Western blots were performed according to standard methods and quantified using densitometry using Image Studio Lite software from LI-COR Biosciences.
# SphK1 [4] = assay: SphK1 transcripts qRT-PCR in RAW 264.7 macrophages; assay type: cell-based, mouse
# Protocol: as §1, §3, §4
# pSTAT3 = pSTAT3 levels in SMCs (data not shown); assay type: cell-based, human
# S1P [5] = assay: S1P, sphingosine and ceramides by HPLC/MS/MS in hPASMC; assay type: cell-based, human
# Protocol: RAW 264.7 (ATCC) mouse macrophages and Human Embryonic Kidney (HEK) 293T cells were cultured in DMEM media with 10% fetal bovine serum […] and glutamine HEPES buffer and beta-mercaptoethanol were added to the growth medium used for RAW 264.7 macrophages. Primary human pulmonary artery smooth muscle cells (hPASMC) purchased from Lonza (Walkersville, Md.) were cultured in complete growth medium containing smooth muscle growth media-2 (SmGM-2) with 10% FBS and growth factors provided as a kit by the supplier (Lonza, (Walkersville, Md.). THP-1 human monocyte cells were cultured in RPMI 1640 with 10% FBS and glutamine Cells were cultured in a humidified atmosphere with 5% CO2 at 370 C. For all studies passages 5-14 were used for RAW 264.7 and passages 5-10 were used for hPASMCs. For treatment studies, subconfluent cells plated in multi-well plates were serum starved and if required, pretreated for with inhibitors before stimulating with 2 μg/mL recombinant EMAP II.
# Collected cells were rinsed with PBS, pelleted and frozen at minus 80° Celsius. Sphingolipids extraction and analysis is carried out at the Medical University of South Carolina (MUSC) core facility using eight-point calibration curves generated for each target analyte by High Performance Liquid Chromatography-Tandem Mass Spectrometry (HPLC/MS/MS) system operating in positive multiple reaction-monitoring (MRM) mode engaging a gradient elution. Sphingolipids are normalized to inorganic phosphate levels determined from the Bligh & Dyer lipid extraction method. Biological samples were from different passage numbers and on different days.
# RAW 264.7 (ATCC) mouse macrophages and HEK-293T (ATCC) cells were cultured in DMEM media with 10% (v/v) fetal bovine serum (FBS) and 2 mM glutamine HEPES buffer and beta-mercaptoethanol were added to the growth medium used for RAW 264.7 macrophages. […]
# Collected cells were rinsed with PBS, pelleted. […] Sphingolipids were normalized to inorganic phosphate levels in PASMC which was determined from the Bligh & Dyer lipid extraction method. […]
# S1P [6] = assay: Lung tissue S1P by HPLC/MS/MS in neonatal mice; assay type: in vivo, mouse; conditions: neonatal C57BL/6 mice; recombinant EMAP II subQ days of life 3-15; postnatal day 15 lungs
# Protocol: Animal experimental procedure was performed in accordance with the guidelines issued by the University of Notre Dame/Indiana University Institutional Animal and Use Committee. Lung tissues were harvested from postnatal day 15 C57BL/6 mice (Jackson laboratories) that were injected with either EMAP II or PBS at Day 3. Total protein was extracted and quantified. 1 mg of total protein was subjected to S1P quantification by HPLC/MS/MS.
# Collected cells were rinsed with PBS, pelleted. Cell pellets and 1 mg of protein tissue extracts were frozen at −80° C. Sphingolipids extraction and analysis was carried out at the Medical University of South Carolina (MUSC) core facility using eight-point calibration curves generated for each target analyte by High Performance Liquid Chromatography-Tandem Mass Spectrometry (HPLC/MS/MS) system operating in positive multiple reaction-monitoring (MRM) mode engaging a gradient elution. Sphingolipids were normalized to inorganic phosphate levels in PASMC which was determined from the Bligh & Dyer lipid extraction method. Biological samples were from different passages collected on different days.
# Tnf [7] = assay: Tnf transcripts qRT-PCR in RAW 264.7 macrophages; assay type: cell-based, mouse; conditions: EMAP II time course
# Protocol: as §1, §3, §4
# TNF [8] = assay: TNF in SMCs (data not shown); assay type: cell-based, human
molecule,measurement,setting,value
B1,SphK1 protein expression,SphK1 [1],significant overexpression; also recorded: significantly increased
same,time of peak SphK1 transcription after EMAP II stimulation,SphK1 [2],3 h
same,protein expression of SphK1 compared to control,SphK1 [3]; EMAP II treated macrophages,about 1.7 times
same,SphK1 protein expression,"SphK1 [3]; macrophages, EMAP II 6 hours",significant overexpression; also recorded: significantly increased
same,induction of SphK1 transcription compared to control,SphK1 [4]; EMAP II treated macrophages,about 4 times
same,time of peak SphK1 transcription after EMAP II stimulation,SphK1 [4]; macrophages,3 h
same,pSTAT3 levels / STAT3 activation,pSTAT3,does not impact; also recorded: no STAT3 activation
same,extracellular S1P compared to control,"S1P [5]; SMCs growth media, 1 hour of EMAP II",elevation; also recorded: elevated
same,cellular sphingosine and ceramide levels,"S1P [5]; SMCs, EMAP II 0-24 hours",depreciation throughout the time; also recorded: decreasing levels over time
same,cellular S1P levels (HPLC/MS/MS),"S1P [5]; SMCs, EMAP II 0-24 hours, normalized against inorganic phosphates",bi-modal elevation
same,whole lung S1P levels compared to control,S1P [6],significantly increased; also recorded: significant increase
same,Tnf transcription level,Tnf [7],increased
same,TNF induction,TNF [8],absent

# From patent US20200397816A1, “METHODS TO TREAT INFLAMMATORY AND SMOOTH MUSCLE CELL PROLIFERATION DISORDERS” (THE TRUSTEES OF INDIANA UNIVERSITY, priority 2019, published 2020)
